From patent publication US20240261333A1, “NOVEL TARGETS FOR ENHANCING ANTI-TUMOR IMMUNITY” (THE BROAD INSTITUTE, INC., priority 2021, published 2024)

T1: B3GNT2 (Homo sapiens, UniProt Q9NY97)
T1 construct: The respective ORFs of candidate genes [CD274 (NM_014143), MCL1 (NM_021960), JUNB (NM_002229), and B3GNT2 (NM_006577)] were synthesized; expressed in transfected cells; host or cells: A375 melanoma cells (lentiviral ORF overexpression)
T1 sequence (Q9NY97 1-397): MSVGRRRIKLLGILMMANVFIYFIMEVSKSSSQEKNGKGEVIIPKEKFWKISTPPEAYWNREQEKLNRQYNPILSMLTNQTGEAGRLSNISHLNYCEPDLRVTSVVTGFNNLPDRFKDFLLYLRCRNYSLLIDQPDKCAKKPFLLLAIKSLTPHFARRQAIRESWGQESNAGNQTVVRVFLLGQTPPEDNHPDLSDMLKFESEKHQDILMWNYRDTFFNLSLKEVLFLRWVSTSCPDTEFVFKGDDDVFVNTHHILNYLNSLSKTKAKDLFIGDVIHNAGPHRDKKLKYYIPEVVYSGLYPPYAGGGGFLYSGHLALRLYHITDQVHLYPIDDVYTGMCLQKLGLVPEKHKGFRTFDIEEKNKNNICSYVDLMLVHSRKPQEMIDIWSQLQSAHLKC

B1: HNRNPH1 (protein, UniProt P31943 1-449, looked up)
Heterogeneous nuclear …: MMLGTEGGEGFVVKVRGLPWSCSADEVQRFFSDCKIQNGAQGIRFIYTREGRPSGEAFVELESEDEVKLALKKDRETMGHRYVEVFKSNNVEMDWVLKHTGPNSPDTANDGFVRLRGLPFGCSKEEIVQFFSGLEIVPNGITLPVDFQGRSTGEAFVQFASQEIAEKALKKHKERIGHRYIEIFKSSRAEVRTHYDPPRKLMAMQRPGPYDRPGAGRGYNSIGRGAGFERMRRGAYGGGYGGYDDYNGYNDGYGFGSDRFGRDLNYCFSGMSDHRYGDGGSTFQSTTGHCVHMRGLPYRATENDIYNFFSPLNPVRVHIEIGPDGRVTGEADVEFATHEDAVAAMSKDKANMQHRYVELFLNSTAGASGGAYEHRYVELFLNSTAGASGGAYGSQMMGGMGLSNQSSYGGPASQQLSGGYGGGYGGQSSMSGYDQVLQENSSDFQSNIA
B2: PUF60 (protein)
chain: MATATIALQVNGQQGGGSEPAAAAAVVAAGDKWKPPQGTDSIKMENGQSTAAKLGLPPLTPEQQEALQKAKKYAMEQSIKSVLVKQTIAHQQQQLTNLQMAAVTMGFGDPLSPLQSMAAQRQRALAIMCRVYVGSIYYELGEDTIRQAFAPFGPIKSIDMSWDSVTMKHKGFAFVEYEVPEAAQLALEQMNSVMLGGRNIKVGRPSNIGQAQPIIDQLAEEARAFNRIYVASVHQDLSDDDIKSVFEAFGKIKSCTLARDPTTGKHKGYGFIEYEKAQSSQDAVSSMNLFDLGGQYLRVGKAVTPPMPLLTPATPGGLPPAAAVAAAAATAKITAQEAVAGAAVLGTLGTPGLVSPALTLAQPLGTLPQAVMAAQAPGVITGVTPARPPIPVTIPSVGVVNPILASPPTLGLLEPKKEKEEEELFPESERPEMLSEQEHMSISGSSARHMVMQKLLRKQESTVMVLRNMVDPKDIDDDLEGEVTEECGKFGAVNRVIIYQEKQGEEEDAEIIVKIFVEFSIASETHKAIQALNGRWFAGRKVVAEVYDQERFDNSDLSA
B3: DDX17 (protein)
chain: MPTGFVAPILCVLLPSPTREAATVASATGDSASERESAAPAAAPTAEAPPPSVVTRPEPQALPSPAIRAPLPDLYPFGTMRGGGFGDRDRDRDRGGFGARGGGGLPPKKFGNPGERLRKKKWDLSELPKFEKNFYVEHPEVARLTPYEVDELRRKKEITVRGGDVCPKPVFAFHHANFPQYVMDVLMDQHFTEPTPIQCQGFPLALSGRDMVGIAQTGSGKTLAYLLPAIVHINHQPYLERGDGPICLVLAPTRELAQQVQQVADDYGKCSRLKSTCIYGGAPKGPQIRDLERGVEICIATPGRLIDFLESGKTNLRRCTYLVLDEADRMLDMGFEPQIRKIVDQIRPDRQTLMWSATWPKEVRQLAEDFLRDYTQINVGNLELSANHNILQIVDVCMESEKDHKLIQLMEEIMAEKENKTIIFVETKRRCDDLTRRMRRDGWPAMCIHGDKSQPERDWVLNEFRSGKAPILIATDVASRGLDVEDVKFVINYDYPNSSEDYVHRIGRTARSTNKGTAYTFFTPGNLKQARELIKVLEEANQAINPKLMQLVDHRGGGGGGGGRSRYRTTSSANNPNLMYQDECDRRLRGVKDGGRRDSASYRDRSETDRAGYANGSGYGSPNSAFGAQAGQYTYGQGTYGAAAYGTSSYTAQEYGAGTYGASSTTSTGRSSQSSSQQFSGIGRSGQQPQPLMSQQFAQPPGATNMIGYMGQTAYQYPPPPPPPPPSRK
B4: TM9SF1 (protein)
chain: PGVEGVTHYKAGDPVILYVNKVGPYHNPQETYHYYQLPVCCPEKIRHKSLSLGEVLDGDRMAESLYEIRFRENVEKRILCHMQLSSAQVEQLRQAIEELYYFEFVVDDLPIRGFVGYMEESGFLPHSHKIGLWTHLDFHLEFHGDRIIFANVSVRDVKPHSLDGLRPDEFLGLTHTYSVRWSETSVERRSDRRRGDDGGFFPRTLEIHWLSIINSMVLVFLLVGFVAVILMRVLRNDLARYNLDEETTSAGSGDDFDQGDNGWKIIHTDVFRFPPYRGLLCAVLGVGAQFLALGTGIIVMALLGMFNVHRHGAINSAAILLYALTCCISGYVSSHFYRQIGGERWVWNIILTTSLFSVPFFLTWSVVNSVHWANGSTQALPATTILLLLTVWLLVGFPLTVIGGIFGKNNASPFDAPCRTKNIAREIPPQPWYKSTVIHMTVGGFLPFRYPPFIPWLLLSGS
B5: COPA (protein)
chain: MLTKFETKSARVKGLSFHPKRPWILTSLHNGVIQLWDYRMCTLIDKFDEHDGPVRGIDFHKQQPLFVSGGDDYKIKVWNYKLRRCLFTLLGHLDYIRTTFFHHEYPWILSASDDQTIRVWNWQSRTCVCVLTGHNHYVMCAQFHPTEDLVVSASLDQTVRVWDISGLRKKNLSPGAVESDVRGITGVDLFGTTDAVVKHVLEGHDRGVNWAAFHPTMPLIVSGADDRQVKIWRMNESKAWEVDTCRGHYNNVSCAVFHPRQELILSNSEDKSIRVWDMSKRTGVQTFRRDHDRFWVLAAHPNLNLFAAGHDGGMIVFKLERERPAYAVHGNMLHYVKDRFLRQLDFNSSKDVAVMQLRSGSKFPVFNMSYNPAENAVLLCTRASNLENSTYDLYTIPKDADSQNPDAPEGKRSSGLTAVWVARNRFAVLDRMHSLLIKNLKNEITKKVQVPNCDEIFYAGTGNLLLRDADSITLFDVQQKRTLASVKISKVKYVIWSADMSHVALLAKHAIVICNRKLDALCNIHENIRVKSGAWDESGVFIYTTSNHIKYAVTTGDHGIIRTLDLPIYVTRVKGNNVYCLDRECRPRVLTIDPTEFKFKLALINRKYDEVLHMVRNAKLVGQSIIAYLQKKGYPEVALHFVKDEKTRFSLALECGNIEIALEAAKALDDKNCWEKLGEVALLQGNHQIVEMCYQRTKNFDKLSFLYLITGNLEKLRKMMKIAEIRKDMSGHYQNALYLGDVSERVRILKNCGQKSLAYLTAATHGLDEEAESLKETFDPEKETIPDIDPNAKLLQPPAPIMPLDTNWPLLTVSKGFFEGTIASKGKGGALAADIDIDTVGTEGWGEDAELQLDEDGFVEATEGLGDDALGKGQEEGGGWDVEEDLELPPELDISPGAAGGAEDGFFVPPTKGTSPTQIWCNNSQLPVDHILAGSFETAMRLLHDQVGVIQFGPYKQLFLQTYARGRTTYQALPCLPSMYGYPNRNWKDAGLKNGVPAVGLKLNDLIQRLQLCYQLTTVGKFEEAVEKFRSILLSVPLLVVDNKQEIAEAQQLITICREYIVGLSVETERKKLPKETLEQQKRICEMAAYFTHSNLQPVHMILVLRTALNLFFKLKNFKTAATFARRLLELGPKPEVAQQTRKILSACEKNPTDAYQLNYDMHNPFDICAASYRPIYRGKPVEKCPLSGACYSPEFKGQICRVTTVTEIGKDVIGLRISPLQFR
B6: CPT1A (protein)
chain: AEAHQAVAFQFTVTPDGIDLRLSHEALRQIYLSGLHSWKKKFIRFKNGIITGVYPASPSSWLIVVVGVMTTMYAKIDPSLGIIAKINRTLETANCMSSQTKNVVSGVLFGTGLWVALIVTMRYSLKVLLSYHGWMFTEHGKMSRATKIWMGMVKIFSGRKPMLYSFQTSLPRLPVPAVKDTVNRYLQSVRPLMKEEDFKRMTALAQDFAVGLGPRLQWYLKLKSWWATNYVSDWWEEYIYLRGRGPLMVNSNYYAMDLLYILPTHIQAARAGNAIHAILLYRRKLDREEIKPIRLLGSTIPLCSAQWERMFNTSRIPGEETDTIQHMRDSKHIVVYHRGRYFKVWLYHDGRLLKPREMEQQMQRILDNTSEPQPGEARLAALTAGDRVPWARCRQAYFGRGKNKQSLDAVEKAAFFVTLDETEEGYRSEDPDTSMDSYAKSLLHGRCYDRWFDKSFTFVVFKNGKMGLNAEHSWADAPIVAHLWEYVMSIDSLQLGYAEDGHCKGDINPNIPYPTRLQWDIPGECQEVIETSLNTANLLANDVDFHSFPFVAFGKGIIKKCRTSPDAFVQLALQLAHYKDMGKFCLTYEASMTRLFREGRTETVRSCTTESCDFVRAMVDPAQTVEQRLKLFKLASEKHQHMYRLAMTGSGIDRHLFCLYVVSKYLAVESPFLKEVLSEPWRLSTSQTPQQQVELFDLENNPEYVSSGGGFGPVADDGYGVSYILVGENLINFHISSKFSCPETGIISQGPSSDT
B7: RBM14 (protein)
chain: MKIFVGNVDGADTTPEELAALFAPYGTVMSCAVMKQFAFVHMRENAGALRAIEALHGHELRPGRALVVEMSRPRPLNTWKIFVGNVSAACTSQELRSLFERRGRVIECDVVKDYAFVHMEKEADAKAAIAQLNGKEVKGKRINVELSTKGQKKGPGLAVQSGDKTKKPGAGDTAFPGTGGFSATFDYQQAFGNSTGGFDGQARQPTPPFFGRDRSPLRRSPPRASYVAPLTAQPATYRAQPSVSLGAAYRAQPSASLGVGYRTQPMTAQAASYRAQPSVSLGAPYRGQLASPSSQSAAASSLGPYGGAQPSASALSSYGGQAAAASSLNSYGAQGSSLASYGNQPSSYGAQAASSYGVRAAASSYNTQGAASSLGSYGAQAASYGAQSAASSLAYGAQAASYNAQPSASYNAQSAPYAAQQAASYSSQPAAYVAQPATAAAYASQPAAYAAQATTPMAGSYGAQPVVQTQLNSYGAQASMGLSGSYGAQSAAAATGSYGAAAAYGAQPSATLAAPYRTQSSASLAASYAAQQHPQAAASYRGQPGNAYDGAGQPSAAYLSMSQGAVANANSTPPPYERTRLSPPRASYDDPYKKAVAMSKRYGSDRRLAELSDYRRLSESQLSFRRSPTKSSLDYRRLPDAHSDYARYSGSYNDYLRAAQMHSGYQRRM

target: T1, B3GNT2; assay: Co-IP of FLAG-tagged B3GNT2 followed by mass spectrometry; format: cell-based; parameters: C-term IgG / C-term flag: unit not given here; settings: Co-IP followed by mass spectrometry of B3GNT2; C-term tag, FLAG pull-down
In short: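 FLAG-tagged B3GNT2 immunoprecipitated from cell lysate (HEPES, 1% Triton X-100, 150 mM NaCl) with anti-FLAG versus […], overnight at 4° C, then captured on Protein A/G magnetic beads for 4 h. Two biological replicates per condition. Peptides fractionated and analyzed by nano-LC on an Orbitrap Elite in data-dependent mode.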

C-term flag | Molecule
15 | B1
6 | B2
30 | B3
4 | B4
2 | B5
2 | B6
2 | B7

same assay, conditions: Co-IP followed by mass spectrometry of B3GNT2; C-term tag, IgG pull-down

C-term IgG | Molecule
11 | B1
5 | B2
22 | B3
0 | B4
0 | B5
0 | B6
0 | B7

same assay, conditions: Co-IP followed by mass spectrometry of B3GNT2; N-term tag, FLAG pull-down

N-term FLAG | Molecule
11 | B1
6 | B2
23 | B3
0 | B4
2 | B5
2 | B6
3 | B7

same assay, conditions: Co-IP followed by mass spectrometry of B3GNT2; N-term tag, IgG pull-down

N-term IgG | Molecule
11 | B1
5 | B2
23 | B3
0 | B4
0 | B5
0 | B6
4 | B7
